Measurements taken from paper PMC2970701 (DNA repair, 2010).

Target: S. cerevisiae ubiquitin (S. cerevisiae, UniProt P0CG63 1-76)
Experiment: NMR titration

Chain of S. cerevisiae ubiquitin (P0CG63 1-76): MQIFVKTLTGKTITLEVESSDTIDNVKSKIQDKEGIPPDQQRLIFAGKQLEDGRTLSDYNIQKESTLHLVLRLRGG

binding result: binds
B1: UBZ domain of S. cerevisiae polymerase η (domain or fragment)
chain: TTSSKADEKTPKLECCKYQVTFTDQKALQEHADYHLALKLSEGLNGAEESSKNLSFGEKRLLF
